Data: publication PMC8017925, “Structural basis for differential recognition of phosphohistidine-containing peptides by 1-pHis and 3-pHis monoclonal antibodies” (Proceedings of the National Academy of Sciences of the …, 2021)

Test system: ACLYana-3-pHis peptide (AGAG-3-pHis-AGAG)
Assay: BLI binding kinetics of 3-pHis Fabs with affinity-purified pHis peptide
Protocol: Biolayer interferometry (BLI) studies were performed to determine the relative affinity of pHis Fabs to in situ phosphorylated His peptides versus the phosphomimetic substrates. The N-terminally biotinylated peptides were immobilized on streptavidin biosensors and the rate of association (ka) and dissociation (kd) were determined by varying the pHis Fab concentration. Equilibrium dissociation constants (KD) were determined by fitting the experimental data to a 1:1 Langmuir binding model. ACLYana-1-pTza and ACLYana-3-pTza peptides were used to determine affinity to 1-pHis and 3-pHis Fabs, respectively (Fig. 3 A–E and Table 1). […] The two isomers were separated from each other by passing the reaction through affinity columns containing 1-pHis mAbs using SC1-1 or SC50-3 IgGs or 3-pHis mAbs using SC39-4, SC44-8, and SC56-2 IgGs. The eluates thus contained either predominantly 1-pHis or 3-pHis peptides. These peptides were used to determine the affinity to their respective isomer class of pHis Fabs (Fig. 3 F–J, Table 1, and SI Appendix, Fig. S5). […] This experimental observation is well supported by the higher number of hydrogen bonds that support the SC44-8:3-pTza interaction compared to other pHis Fabs (SI Appendix, Table S5). […] There are at least three reasons for the lower affinity of the mAbs for pHis peptides compared to pTza peptides: The continuous hydrolysis of phosphate from the pHis peptides during the course of the experiment (SI Appendix, Fig. S6), a reduction in the number of hydrogen bond interactions due to one less nitrogen in the imidazole ring compared to triazolyl ring (Fig. 4 and SI Appendix, Fig. S8), and inherently different electronic properties of the imidazole and triazolyl rings in His and Tza, respectively ([20]).
Fig. 3. Binding kinetics of pHis Fabs with cognate pTza and pHis peptides. BLI studies of immobilized peptides (ACLYana-1/3-pTza and phosphorylated ACLYana) with varying concentrations of the pHis Fabs were carried out in triplicate on an Octet Red96e instrument (FortéBio). SC1-1 (A) and SC50-3 (B) pHis Fab interaction with their ACLYana-1-pTza peptides. SC39-4 (C), SC44-8 (D), and SC56-2 (E) pHis Fabs interactions with ACLYana-3-pTza peptides. SC1-1 (F), SC50-3 (G), SC39-4 (H), SC44-8 (I), and SC56-2 (J) pHis Fabs interactions with their affinity-purified ACLYana-pHis peptides are represented, Right. The experimental data are represented in the black dashed lines and the nonlinear least-squares fitting was represented in the red continuous lines. The χ^2 for the goodness of fit is under 1.0 for the all the plots.
The binding kinetics of pHis Fabs with the peptides (pTza and pHis) were evaluated with an Octet RED96e (FortéBio). Streptavidin-coated biosensors (FortéBio) were presoaked in buffer containing 50 mM Hepes pH 8.0, 150 mM NaCl, 0.05% Tween-20, and 0.2% BSA for 15 min. The biotinylated pTza peptides or pHis peptides (20 nM) with and without phosphoramidate treatment were coated onto these streptavidin biosensors and analyzed for their binding to varying concentrations of the pHis Fabs with an association time of 120 s and dissociation time of 200 s. The entire set of experiments was repeated three times. The data were analyzed using the Octet software (FortéBio) and the rates of association and dissociation were obtained by global fitting data to the 1:1 Langmuir interaction model. […]
Peptides used in the DSF and BLI experiments were synthesized by the Salk Peptide Synthesis Core. These peptides were N-terminally biotinylated and C-terminally amidated. They were synthesized using standard Fmoc chemistry on a Gyros Protein Technologies Tribute peptide synthesizer with UV monitoring. Following the deprotection, peptides were analyzed by mass spectrometry and analytical HPLC by the Proteomics Core at Salk. The peptides were HPLC purified to 99% purity by 21st Century Biochemicals, Inc. The Fmoc-pTza’s were synthesized at 10 g scale for incorporation into the peptides. […]

[1] = BLI, affinity-purified ACLYana-3-pHis peptide, 1:1 Langmuir global fit, triplicate

ka [1]: 93600 ± 319 M⁻¹ s⁻¹
kd [1]: 0.0017 ± 3.32e-06 s⁻¹
Kd (BLI, ACLYana phosphorylated with phosphoramidate (8 h, 23 °C), 3-pHis isomer affinity-purified on 3-pHis IgG column, immobilized on streptavidin biosensors, Hepes pH 8.0, 1:1 Langmuir global fit, triplicate): 18.2 nM
BLI signal (maximum) with ACLYana (phosphorylated ACLYana, GpHAGAG motif): 2.0 nm
affinity for 3-pHis peptides, times (fold) weaker than for the 3-pTza peptide (ratio of BLI KD, 3-pHis versus 3-pTza peptide): 75 times
B1: SC44-8: Fab of rabbit 3-pHis-specific monoclonal antibody with proclivity for GpHAGA motif (antibody, V domains shown)
VH: QSVKESGRGLVQPGGSLTLTCTASGFSIDSYGFSWVRQAPGKGLEHIGYLTAGGRAFYASWAKSRSTITRNTNENTVTLKMTSLTAADTATYFCAKLGSGNPVAIWGPGTLVTVSS
VL: QVLTQTPSFTSAAVGGTVTINCQSSQSVWRNKNLAWYQQKPGQPPKRLIYAIATLDSGVPSRFSGSGSGTQFTLTISDVQCDDAATYYCVGHYGSENDAYYAFGGGTEVVVK
